# Measured values as given in patent US20040146984.
# Assays:
# [1] = system: T1, LPXTG-containing peptide KRQLPSTGETANPFY from the streptococcal M6 protein
# T1 sequence: KRQLPSTGETANPFY
# [2] = molecular target: native bovine serum albumin (UniProt P02769)
# [3] = system: peptide in which the LPSTGE was randomly placed (TEPGSL)
# [4] = system: peptide in which the LPSTGE was reversed (EGTSPL)
# Chain of native bovine serum albumin (P02769 25-607): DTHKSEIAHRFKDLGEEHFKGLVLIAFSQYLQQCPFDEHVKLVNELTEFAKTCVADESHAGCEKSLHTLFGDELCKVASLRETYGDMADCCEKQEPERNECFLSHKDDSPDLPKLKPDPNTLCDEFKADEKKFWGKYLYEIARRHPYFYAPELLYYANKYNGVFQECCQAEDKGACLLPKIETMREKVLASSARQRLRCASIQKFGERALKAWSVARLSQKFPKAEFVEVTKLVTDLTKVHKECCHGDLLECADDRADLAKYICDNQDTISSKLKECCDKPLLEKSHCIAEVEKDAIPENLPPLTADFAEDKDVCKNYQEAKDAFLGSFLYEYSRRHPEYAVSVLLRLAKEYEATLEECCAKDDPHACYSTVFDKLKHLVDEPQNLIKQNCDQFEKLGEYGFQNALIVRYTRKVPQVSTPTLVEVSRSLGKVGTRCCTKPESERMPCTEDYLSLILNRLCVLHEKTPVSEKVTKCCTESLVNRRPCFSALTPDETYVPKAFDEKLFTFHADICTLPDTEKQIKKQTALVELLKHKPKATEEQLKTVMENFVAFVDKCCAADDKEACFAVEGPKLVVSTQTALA
substance,measurement,setting,value
LPXTGase,% of control (Calcium chloride 20 mM),[1],23 % of control
same,"% of control (Control, no salt)",[1],100 % of control
same,% of control (EDTA 20 mM),[1],5.2 % of control
same,% of control (Hydroxylamine-HCl 100 mM),[1],27 % of control
same,% of control (Magnesium chloride 20 mM),[1],20 % of control
same,% of control (Potassium chloride 100 mM),[1],20 % of control
same,% of control (Putrescene chloride 20 mM),[1],21 % of control
same,% of control (Sodium chloride 100 mM),[1],16 % of control
same,% of control (Sodium phosphate 20 mM),[1],49 % of control
same,% of control (Sodium sulfate 20 mM),[1],57 % of control
same,"Km (Lineweaver-Burk plot of cleavage of 125I-labeled peptide, 20 to 240 µM, 2.4 µM enzyme, 30 min)",[1],Km of 0.26 mM
same,Vmax (Lineweaver-Burk plot of cleavage of 125I-labeled peptide),[1],Vmax of 67 µM in 30 min when 2.4 µM of enzyme was used in the assay
same,"cleavage of bead-bound peptide, N-terminal sequencing of the fragment",[1],the enzyme cleaved after glutamic acid within the LPSTGE (SEQ ID NO:3) sequence releasing the TANPFY (SEQ ID NO:6) peptide fragment
same,"cleavage of free peptide, sequencing of the fragments",[1],"the enzyme cleaved the free KRQLPSTGETANPFY (SEQ ID NO:2) peptide at two sites, after the serine and the glutamic acid of LPSTGE"
same,"peptide cleaved, cpm (Calcium chloride 20 mM)",[1],9710 cpm
same,"peptide cleaved, cpm (Control, no salt)",[1],41500 cpm
same,"peptide cleaved, cpm (EDTA 20 mM)",[1],2150 cpm
same,"peptide cleaved, cpm (Hydroxylamine-HCl 100 mM)",[1],11200 cpm
same,"peptide cleaved, cpm (Magnesium chloride 20 mM)",[1],8620 cpm
same,"peptide cleaved, cpm (Potassium chloride 100 mM)",[1],8610 cpm
same,"peptide cleaved, cpm (Putrescene chloride 20 mM)",[1],8710 cpm
same,"peptide cleaved, cpm (Sodium chloride 100 mM)",[1],6720 cpm
same,"peptide cleaved, cpm (Sodium phosphate 20 mM)",[1],20600 cpm
same,"peptide cleaved, cpm (Sodium sulfate 20 mM)",[1],23500 cpm
same,cleavage (SDS-PAGE for degradation),[2],No cleavage was observed when native bovine serum albumin was reacted in a similar way
same,cleavage of bead-bound or free peptide,[3],no cleavage was observed (not shown)
same,cleavage of bead-bound or free peptide,[4],no cleavage was observed (not shown)
